Data from US20260242478A1 (published 2026).
Where no end group is shown, it is not given here.

What was measured:
PSMA Fab (006 PSMA Fab) [1] = target: T1, PSMA Fab (006 PSMA Fab); assay: phage ELISA; biotinylated PSMA Fab on neutravidin plate pre-incubated with PSMA antigen as competitor, anti-M13 HRP detection;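 further: crude clonal phage supernatants tested, compared against control wells pre-incubated with blocking buffer only, without PSMA antigen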
T1 construct: also called Anti-PSMA Fab; anti-PSMA Fab
Experimental: (§1) Clonal phage were harvested as crude supernatants and screened via standard ELISAs. […] Prior to the addition of clonal phage. wells were incubated with blocking buffer and PSMA antigen or blocking buffer alone. Without washing or aspirating, clonal phage supernatants were then added to the wells and incubated for a short time. Wells were then washed followed by detection of bound phage using a horse radish conjugated anti-M13 antibody.

PSMA Fab (006 PSMA Fab) [2] = target: T1, PSMA Fab (006 PSMA Fab); assay: phage ELISA; biotinylated PSMA Fab on neutravidin plate, clonal phage supernatant, anti-M13 HRP detection;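 further: wells preincubated with PSMA antigen in blocking buffer or with blocking buffer only before clonal phage were added for a short incubation, then bound phage detected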
Experimental: as §1

PSMA Fab (006 PSMA Fab) [3] = target: T2, PSMA Fab (006 PSMA Fab) (biotinylated (site not stated)); assay: clonal phage ELISA on biotinylated PSMA Fab captured on neutravidin plate, blocking buffer alone; anti-M13 HRP detection
T2 construct: also called Anti-PSMA Fab; anti-PSMA Fab

Anti-PSMA Fab [4] = target: T3, Anti-PSMA Fab; assay: clonal phage ELISA on captured PSMA Fab, wells pre-incubated with PSMA antigen as competitor, anti-M13-HRP detection;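 further: crude clonal phage supernatants added without washing after the PSMA preincubation, comparison wells received blocking buffer alone without PSMA, bound phage read after washing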
T3 construct: also called 006 PSMA Fab
Experimental: as §1

Anti-PSMA Fab [5] = target: T3, Anti-PSMA Fab; assay: clonal phage ELISA on biotinylated PSMA Fab captured on neutravidin plates, anti-M13-HRP detection;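 further: crude clonal phage supernatants added to wells preincubated with PSMA antigen or with blocking buffer only (no wash between), briefly incubated, then washed before detecting bound phage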
Experimental: as §1

PSMA Fab [6] = target: T4, PSMA Fab; assay: clonal phage ELISA; biotinylated PSMA Fab on neutravidin plate, wells pre-incubated with PSMA antigen as competitor; anti-M13 HRP detection;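 further: crude clonal phage supernatants added to antigen-treated wells without a wash, incubated briefly, then bound phage read out via horse radish–conjugated anti-M13 antibody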
T4 construct: also called Anti-PSMA Fab; 006 PSMA Fab
Experimental: as §1

PSMA Fab [7] = target: T4, PSMA Fab; assay: clonal phage ELISA; biotinylated PSMA Fab on neutravidin plate, blocking buffer alone; anti-M13 HRP detection;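 further: crude clonal phage supernatants added without washing to wells pretreated with blocking buffer with or without PSMA antigen, short incubation, then washed before detecting bound phage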
Experimental: as §1

| Binder | Phage binding ELISA signal, Anti-PSMA Fab in presence of PSMA (PSMA Fab (006 PSMA Fab) [1]) | Phage binding ELISA signal, Anti-PSMA Fab (PSMA Fab (006 PSMA Fab) [2]) | Phage binding ELISA signal, Anti-PSMA Fab (PSMA Fab (006 PSMA Fab) [3]) | other results |
| --- | --- | --- | --- | --- |
| VHRMCEPKWMCEGF [Phage-3773] | 0.0695 | 1.33 | – | – |
| TTPMCVPAWMCSGM (peptide, not shown: large carriers, Clonal phage of the peptide-180 library, tested as crude phage supernatant) [Phage-3770] | – | – | 1.34 | – |
| DLIYCRPAWMCDGF (Clone of the Peptide-180 optimisation library, tested as clonal phage supernatant) [Phage-3795] | – | – | – | Phage binding ELISA signal, Anti-PSMA Fab with PSMA antigen (Anti-PSMA Fab [4]): 0.0679; Phage binding ELISA signal, Anti-PSMA Fab (Anti-PSMA Fab [5]): 1.31 |
| SEPVCTPMWMCTGI (peptide, not shown: large carriers, Clonal phage of the peptide-180 library, tested as crude phage supernatant) [Phage-3768] | – | – | 1.35 | – |
| VEYLCKPVWMCQGF (Clone of the Peptide-180 optimisation library, tested as clonal phage supernatant) [Phage-3797] | – | – | – | Phage binding ELISA signal, Anti-PSMA Fab with PSMA antigen (Anti-PSMA Fab [4]): 0.0609; Phage binding ELISA signal, Anti-PSMA Fab (Anti-PSMA Fab [5]): 1.31 |
| MLRSCVPPWMCAGF (cysteine pairing not given here; also: displayed on phage as fusion to pIII, junction not given here, Clone of the Peptide-180 optimisation library, tested as clonal phage supernatant) [Phage-3788] | – | – | – | Phage binding ELISA signal, Anti-PSMA Fab with PSMA antigen (Anti-PSMA Fab [4]): 0.0821; Phage binding ELISA signal, Anti-PSMA Fab (Anti-PSMA Fab [5]): 1.32 |
| TVKQCVPEWMCVML (Clone of the Peptide-180 optimisation library, tested as clonal phage supernatant) [Phage-3794] | – | – | – | Phage binding ELISA signal, Anti-PSMA Fab with PSMA antigen (Anti-PSMA Fab [4]): 0.104; Phage binding ELISA signal, Anti-PSMA Fab (Anti-PSMA Fab [5]): 1.31 |
| VSQLCIPEWMCIGI (Clone of the Peptide-180 optimisation library, tested as clonal phage supernatant) [Phage-3790] | – | – | – | Phage binding ELISA signal, Anti-PSMA Fab with PSMA antigen (Anti-PSMA Fab [4]): 0.08; Phage binding ELISA signal, Anti-PSMA Fab (Anti-PSMA Fab [5]): 1.32 |
| VVRVCEPSWMCAGF (peptide, not shown: large carriers, cysteine pairing not given here; also: displayed on phage as pIII fusion, Clonal phage of the peptide-180 library, tested as crude phage supernatant) [Phage-3767] | – | – | 1.35 | – |
| HMQYCIPQWMCHGF (Clone of the Peptide-180 optimisation library, tested as clonal phage supernatant) [Phage-3792] | – | – | – | Phage binding ELISA signal, Anti-PSMA Fab with PSMA antigen (Anti-PSMA Fab [4]): 0.0825; Phage binding ELISA signal, Anti-PSMA Fab (Anti-PSMA Fab [5]): 1.32 |
| DVGMCRPKWMCDGF (peptide, not shown: large carriers, Clonal phage of the peptide-180 library, tested as crude phage supernatant) [Phage-3759] | – | – | 1.36 | – |
| MVIECRPEWMCVGF (peptide, not shown: large carriers, Clonal phage of the peptide-180 library, tested as crude phage supernatant) [Phage-3765] | – | – | 1.35 | – |
| GSPFCVPLWMCEGF (peptide, not shown: large carriers, Clonal phage of the peptide-180 library, tested as crude phage supernatant) [Phage-3769] | – | – | 1.35 | – |
| GNIWCEPAWMCVGF (peptide, not shown: large carriers, Clonal phage of the peptide-180 library, tested as crude phage supernatant) [Phage-3771] | – | – | 1.34 | – |
| MERSCIPDWMCLGF (Clone of the Peptide-180 optimisation library, tested as clonal phage supernatant) [Phage-3796] | – | – | – | Phage binding ELISA signal, Anti-PSMA Fab with PSMA antigen (Anti-PSMA Fab [4]): 0.0541; Phage binding ELISA signal, Anti-PSMA Fab (Anti-PSMA Fab [5]): 1.31 |
| YSNFCVPHWMCSGF [Phage-3782] | 0.0679 | 1.33 | – | – |
| VQLMCMPEWMCSGL [Phage-3775] | 0.0599 | 1.33 | – | – |
| LKVECRPLWMCEGF (Clone of the Peptide-180 optimisation library, tested as clonal phage supernatant) [Phage-3787] | – | – | – | Phage binding ELISA signal, Anti-PSMA Fab with PSMA antigen (Anti-PSMA Fab [4]): 0.075; Phage binding ELISA signal, Anti-PSMA Fab (Anti-PSMA Fab [5]): 1.32 |
| HMPLCIPVWMCAGF (not fully specified (residue 3); cysteine pairing not given here; also: displayed on phage as fusion to pIII, junction not given here) [Phage-3780] | 0.113 | 1.33 | – | – |
| PVQLCIPSWMCDGF [Phage-3776] | 0.0876 | 1.33 | – | – |
| EMIRCEPRWMCSGF (cysteine pairing not given here; also: displayed on phage as fusion to pIII, junction not given here, Clone of the Peptide-180 optimisation library, tested as clonal phage supernatant) [Phage-3786] | – | – | – | Phage binding ELISA signal, Anti-PSMA Fab with PSMA antigen (Anti-PSMA Fab [4]): 0.0656; Phage binding ELISA signal, Anti-PSMA Fab (Anti-PSMA Fab [5]): 1.32 |
| YETVCKPLWMCTGF (peptide, not shown: large carriers, cysteine pairing not given here; also: displayed on phage as pIII fusion, Clonal phage of the peptide-180 library, tested as crude phage supernatant) [Phage-3758] | – | – | 1.36 | – |

| Binder | Phage binding ELISA signal, Anti-PSMA Fab in presence of PSMA (PSMA Fab (006 PSMA Fab) [1]) | Phage binding ELISA signal, Anti-PSMA Fab (PSMA Fab (006 PSMA Fab) [2]) | Phage binding ELISA signal, Anti-PSMA Fab (PSMA Fab (006 PSMA Fab) [3]) | other results |
| --- | --- | --- | --- | --- |
| LYGVCVPEWMCHGF (peptide, not shown: large carriers, Clonal phage of the peptide-180 library, tested as crude phage supernatant) [Phage-3766] | – | – | 1.35 | – |
| MSMYCVPTWMCNGF (Clone of the Peptide-180 optimisation library, tested as clonal phage supernatant) [Phage-3798] | – | – | – | Phage binding ELISA signal, Anti-PSMA Fab with PSMA antigen (Anti-PSMA Fab [4]): 0.0602; Phage binding ELISA signal, Anti-PSMA Fab (Anti-PSMA Fab [5]): 1.31 |
| SVVKCVPSWMCTGF [Phage-3785] | 0.0729 | 1.32 | – | – |
| VEVRCVPAWMCEGL [Phage-3783] | 0.0698 | 1.33 | – | – |
| ISPICRPAWMCHGF [Phage-3777] | 0.0873 | 1.33 | – | – |
| PGASCVPAWMCDGF [Phage-3784] | 0.0653 | 1.33 | – | – |
| VHMACTPWWMCVGF (Clone of the Peptide-180 optimisation library, tested as clonal phage supernatant) [Phage-3791] | – | – | – | Phage binding ELISA signal, Anti-PSMA Fab with PSMA antigen (Anti-PSMA Fab [4]): 0.0962; Phage binding ELISA signal, Anti-PSMA Fab (Anti-PSMA Fab [5]): 1.32 |
| YHKECIPPWMCMGF [Phage-3756] | – | – | – | Phage binding ELISA signal, Anti-PSMA Fab with PSMA antigen (PSMA Fab [6]): 0.0922; Phage binding ELISA signal, Anti-PSMA Fab (PSMA Fab [7]): 1.37 |
| LVHLCKPPWMCHGF (peptide, not shown: large carriers, Clonal phage of the peptide-180 library, tested as crude phage supernatant) [Phage-3762] | – | – | 1.36 | – |
| DQRECIPHWMCAGF (peptide, not shown: large carriers, cysteine pairing not given here; also: displayed on phage as pIII fusion, Clonal phage of the peptide-180 library, tested as crude phage supernatant) [Phage-3763] | – | – | 1.36 | – |
| GLRMCEPMWMCQGF (cysteine pairing not given here; also: displayed on phage as pIII fusion) [Phage-3772] | 0.0749 | 1.34 | – | – |
| ENRMCIPEWMCQAS (peptide, not shown: large carriers, Clonal phage of the peptide-180 library, tested as crude phage supernatant) [Phage-3764] | – | – | 1.36 | – |
| EVVACVPEWMCVGF (peptide, not shown: large carriers, Clonal phage of the peptide-180 library, tested as crude phage supernatant) [Phage-3761] | – | – | 1.36 | – |
| FAFDCVPKWMCTGF (Clone of the Peptide-180 optimisation library, tested as clonal phage supernatant) [Phage-3793] | – | – | – | Phage binding ELISA signal, Anti-PSMA Fab with PSMA antigen (Anti-PSMA Fab [4]): 0.0829; Phage binding ELISA signal, Anti-PSMA Fab (Anti-PSMA Fab [5]): 1.31 |
| WEGFCVPTWMCDGF [Phage-3774] | 0.0864 | 1.33 | – | – |
| LVARCVPEWMCAGF (cysteine pairing not given here; also: displayed on phage as fusion to pIII, junction not given here) [Phage-3781] | 0.102 | 1.33 | – | – |
| EYQRCIPEWMCSGF [Phage-3779] | 0.0735 | 1.33 | – | – |
| VTTLCRPAWMCHGF [Phage-3778] | 0.0881 | 1.33 | – | – |
| TIMYCKPTWMCTGF [Phage-3757] | – | – | – | Phage binding ELISA signal, Anti-PSMA Fab with PSMA antigen (PSMA Fab [6]): 0.0727; Phage binding ELISA signal, Anti-PSMA Fab (PSMA Fab [7]): 1.37 |
| EEMMCKPDWMCYGF [Phage-3755] | – | – | – | Phage binding ELISA signal, Anti-PSMA Fab with PSMA antigen (PSMA Fab [6]): 0.109; Phage binding ELISA signal, Anti-PSMA Fab (PSMA Fab [7]): 1.37 |
| EQVLCRPEWMCIGF (Clone of the Peptide-180 optimisation library, tested as clonal phage supernatant) [Phage-3789] | – | – | – | Phage binding ELISA signal, Anti-PSMA Fab with PSMA antigen (Anti-PSMA Fab [4]): 0.0856; Phage binding ELISA signal, Anti-PSMA Fab (Anti-PSMA Fab [5]): 1.32 |
| VLPSCIPSWMCNGF (peptide, not shown: large carriers, Clonal phage of the peptide-180 library, tested as crude phage supernatant) [Phage-3760] | – | – | 1.36 | – |
